Substrate in this data set: Nc1ncnc2c1ncn2[C@@H]1O[C@H](CO)[C@@H](O)[C@H]1O
As to the kind of experiment: UV spectrophotometric deamination kinetics. To be noted: zinc. Format: biochemical, Plasmodium vivax.

B1: P. vivax adenosine deaminase (pvADA) (Plasmodium vivax Sal-1) (protein)
chain: MNILQEPIDFLKKEELKNIDLSQMSKKERYKIWKRIPKCELHCHLDLCFSADFFVSCIRKYNLQPNLSDEEVLDYYLFAKGGKSLGEFVEKAIKVADIFHDYEVIEDLAKHAVFNKYKEGVVLMEFRYSPTFVAFKYNLDIELIHQAIVKGIKEVVELLDHKIHVALMCIGDTGHEAANIKASADFCLKHKADFVGFDHGGHEVDLKEYKEIFDYVRESGVPLSVHAGEDVTLPNLNTLYSAIQVLKVERIGHGIRVAESQELIDMVKEKNILLEVCPISNVLLKNAKSMDTHPIRQLYDAGVKVSVNSDDPGMFLTNINDDYEELYTHLNFTLEDFMKMNEWALEKSFMDSNIKDKIKNLYF
For B1, the Km is 71 ± 16 µM.

By Km is commonly meant the concentration of substrate that gives half-maximal velocity.

The values above are taken from PMC3327807.
